Reference: patent EP2843044A1, “Improved variant of D-psicose 3-epimerase and uses thereof” (Roquette Frères, priority 2013, dated 2015)
Positions count from the first letter of the chain named. Numbers in names are those of the source.

B1: D-psicose 3-epimerase (DPEase) from Clostridium cellulolyticum, variant G211S, SEQ ID No 4 (Ruminiclostridium cellulolyticum H10; G211S) (protein)
chain: MKHGIYYAYWEQEWEADYKYYIEKVAKLGFDILEIAASPLPFYSDIQINELKACAHGNGITLTVGHGPSAEQNLSSPDPDIRKNAKAFYTDLLKRLYKLDVHLIGGALYSYWPIDYTKTIDKKGDWERSVESVREVAKVAEACGVDFCLEVLNRFENYLINTAQEGVDFVKQVDHNNVKVMLDTFHMNIEEDSIGGAIRTAGSYLGHLHTSECNRKVPGRGRIPWVEIGEALADIGYNGSVVMEPFVRMGGTVGSNIKVWRDISNGADEKMLDREAQAALDFSRYVLECHKHS
notes: made in house; host or cells: Bacillus subtilis WB600 (pMA5)
B2: D-psicose 3-epimerase (DPEase) from Clostridium cellulolyticum, wild type, SEQ ID No 2 (Ruminiclostridium cellulolyticum H10) (protein)
chain: B1 chain with S211G
notes: as for B1
B3: D-psicose 3-epimerase (DPEase) from Clostridium cellulolyticum, variant G211A (Ruminiclostridium cellulolyticum H10; G211A) (protein)
chain: B1 chain with S211A
notes: as for B1
B4: D-psicose 3-epimerase (DPEase) from Clostridium cellulolyticum, variant G211D (Ruminiclostridium cellulolyticum H10; G211D) (protein)
chain: B1 chain with S211D
notes: as for B1
B5: D-psicose 3-epimerase (DPEase) from Clostridium cellulolyticum, variant G211R (Ruminiclostridium cellulolyticum H10; G211R) (protein)
chain: B1 chain with S211R
notes: made in house
B6: D-psicose 3-epimerase (DPEase) from Clostridium cellulolyticum, variant G211W (Ruminiclostridium cellulolyticum H10; G211W) (protein)
chain: B1 chain with S211W
notes: as for B1
B7: D-psicose 3-epimerase (DPEase) from Clostridium cellulolyticum, variant G211L (Ruminiclostridium cellulolyticum H10; G211L) (protein)
chain: B1 chain with S211L
notes: as for B1

Substrate: O=C(CO)[C@@H](O)[C@H](O)[C@H](O)CO
Assay: Determination of kinetic parameters of DPEase (HPLC assay of D-psicose formed)
Assay type: biochemical, Clostridium cellulolyticum
Conditions: other: 50 mM Tris-HCl buffer (pH 8.0), 0.1mM Co^2+, 5-200mM substrate, 55 °C
Experimental: Kinetic parameters of DPEase variants were determined in 50 mM Tris-HCl buffer (pH 8.0) containing 0.1mM Co^2+ and 5-200mM substrate for reaction at 55 °C. The enzyme reactions were stopped after 10 min by boiling, and the amount of D-psicose was determined by the HPLC assay. Kinetic parameters, such as the Michaelis-Menten constant (Km) and turnover number (kcat) values for substrates, were obtained using the Lineweaver-Burk equation and quantification of enzyme concentration.
The concentrations of D-fructose and D-psicose were analyzed by HPLC equipped with a refractive index detector and a Ca^2+-carbohydrate column (Waters Sugar-Pak 1, Waters Corp., Milford, MA), which was eluted with water at 85 °C and 0.4 mL/min. Protein concentration was determined according to the method of Bradford using bovine serum albumin as a standard. SDS-PAGE was carried out according to the method of Laemmli. Gels (12% w/v polyacrylamide) were stained with Coomassie Brilliant Blue and destained with an aqueous mixture of 10% (v/v) methanol/10% (v/v) acetic acid. Table 1: Enzyme properties and kinetic parameters of the wild-type and mutant enzymes of DPEase from C. cellulolyticum for substrate D-psicose

| Protein | kcat/Km [mM^-1 min ^-1] |
| --- | --- |
| B1 | 150.6 |
| B2 | 62.7 |
| B3 | 9.8 |
| B4 | 86.7 |
| B5 | 26.5 |
| B6 | 68.1 |
| B7 | 73.2 |
